One block for each substance: values may come before it.
What was measured:
[1] = molecular target: CdiA‐CT^BWH57 toxin (nuclease) domain (Serratia marcescens BWH57); experiment: crystal structure; CdiA-CT•CdiI complex, 1.59 Å; the N-terminal domain of CdiA-CT was cleaved off by in situ proteolysis before crystallisation
[2] = molecular target: Histidine zipper coiled coil protein from Meiothermus silvanus (Meio) (Meiothermus silvanus); experiment: crystal structure; crystal structures of the histidine zipper proteins (1.35 to 1.93 Å); antiparallel homo-dimers
[3] = molecular target: Histidine zipper coiled coil protein from Methylobacter tundripaludum (Tuna) (Methylobacter tundripaludum); experiment: as above
[4] = molecular target: Histidine zipper coiled coil protein from Nitrosococcus oceani (Nitro) (Nitrosococcus oceani); experiment: as above

Substance: CdiI^BWH57 immunity protein (natural protein)
stoichiometry N [1]: 1

stoichiometry N [2]: 2
Substance: Histidine zipper coiled coil protein from Meiothermus silvanus (Meio) (natural protein)

stoichiometry N [3]: 2
Substance: Histidine zipper coiled coil protein from Methylobacter tundripaludum (Tuna) (natural protein)

stoichiometry N [4]: 2
Substance: Histidine zipper coiled coil protein from Nitrosococcus oceani (Nitro) (natural protein)

From publication PMC8616854
